Reference: patent US20200222532A1 (ARGENX, published 2020)

Biological target: T1, CD70 (human, UniProt P32970 1-193)
T1 sequence (looked up): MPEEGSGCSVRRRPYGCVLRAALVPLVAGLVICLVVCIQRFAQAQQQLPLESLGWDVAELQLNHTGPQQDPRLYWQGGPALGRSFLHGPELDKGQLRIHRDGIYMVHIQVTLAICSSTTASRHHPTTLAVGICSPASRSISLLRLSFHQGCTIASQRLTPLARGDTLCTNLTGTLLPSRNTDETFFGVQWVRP
Test: cell-based or functional assay

B1: ARGX-110 (cusatuzumab) (antibody, V domains shown)
VH: EVQLVESGGGLVQPGGSLRLSCAASGFTFSVYYMNWVRQAPGKGLEWVSDINNEGGTTYYADSVKGRFTISRDNSKNSLYLQMNSLRAEDTAVYYCARDAGYSNHVPIFDSWGQGTLVTVSS
VL: QAVVTQEPSLTVSPGGTVTLTCGLKSGSVTSDNFPTWYQQTPGQAPRLLIYNTNTRHSGVPDRFSGSILGNKAALTITGAQADDEAEYFCALFISNPSVEFGGGTQLTVLG
IC50 of killing of MOLM-13 AML cells in the presence of CFSE-labelled NK cells (ratio 1:1): 0.68 µg/mL
IC50 of killing of MV4-11 AML cells in the presence of CFSE-labelled NK cells (ratio 1:1): 1.2 µg/mL
IC50 of killing of NB4 AML cells in the presence of CFSE-labelled NK cells (ratio 1:1): 0.3 µg/mL
IC50 of killing of NOMO-1 AML cells in the presence of CFSE-labelled NK cells (ratio 1:1): 0.14 µg/mL
